According to the supplement of paper PMC5998384:

Key:
[1] = system: HeLa Kyoto; experiment: solubility in G1/S (NP-40 vs SDS abundance) (log2 ratio); higher = more soluble; details: cell cycle stage: G1/S
[2] = system: HeLa Kyoto; experiment: melting temperature (median over replicates), in situ; higher = more thermally stable
[3] = system: HeLa Kyoto; experiment: solubility change mitosis vs G1/S (difference of NP-40 vs SDS log2 ratios) (log2 ratio difference); higher = more soluble in mitosis
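Throughout, for melting temperature (median over replicates), in situ: HeLa Kyoto cells synchronized by double thymidine or nocodazole block, proteins quantified by TMT10plex mass spectrometry, three independent biological replicates.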
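Throughout, for solubility change mitosis vs G1/S (difference of NP-40 vs SDS log2 ratios): synchronized HeLa Kyoto cells (double thymidine block for G1/S, nocodazole release for mitosis), protein amounts in NP-40 versus SDS lysates quantified by mass spectrometry, three biological replicates.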
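Throughout, for solubility in G1/S (NP-40 vs SDS abundance): HeLa Kyoto cells arrested at G1/S by double thymidine block, proteins quantified by TMT10plex mass spectrometry in mild NP-40 versus SDS extracts, three biological replicates.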

Row | Sequence | solubility in G1/S (log2) [1] | melting temperature ([2]; cell cycle stage: G1/S) | melting temperature ([2]; cell cycle stage: mitosis) | solubility change mitosis (log2) [3]
1 | MERFVVTAPPARNRSKTALYVTPLDRVTEFGGELHEDGGKLFCTSCNVVLNHVRKSAISDHLKSKTHTKRKAEFEEQNVRKKQRPLTASLQCNSTAQTEKVSVIQDFVKMCLEANIPLEKADHPAVRAFLSRHVKNGGSIPKSDQLRRAYLPDGYENENQLLNSQDC [CGGBP1] | 0.332 | 51.7 °C | 51.8 °C | 0.0407
2 | MFPLTEENKHVAQLLLNTGTCPRCIFRFCGVDFHAPYKLPYKELLNELQKFLETEKDELILEVMNPPPKKIRLQELEDSIDNLSQNGEGRISVSHVGSTASKNSNLNVCNVCLGILQEFCEKDFIKKVCQKVEASGFEFTSLVFSVSFPPQLSVREHAAWLLVKQEMGKQSLSLGRDDIVQLKEAYKWITHPLFSEELGVPIDGKSLFEVSVVFAHPETVEDCHFLAAICPDCFKPAKNKQSVFTRMAVMKALNKIKEEDFLKQFPCPPNSPKAVCAVLEIECAHGAVFVAGRYNKYSRNLPQTPWIIDGERKLESSVEELISDHLLAVFKAESFNFSSSGREDVDVRTLGNGRPFAIELVNPHRVHFTSQEIKELQQKINNSSNKIQVRDLQLVTREAIGHMKEGEEEKTKTYSALIWTNKAIQKKDIEFLNDIKDLKIDQKTPLRVLHRRPLAVRARVIHFMETQYVDEHHFRLHLKTQAGTYIKEFVHGDFGRTKPNIGSLMNVTADILELDVESVDVDWPPALDD [PUS10] | 0.0782 | 50.8 °C | 51.8 °C | -0.271
3 | MGEEANDDKKPTTKFELERETELRFEVEASQSVQLELLTGMAEIFGTELTRNKKFTFDAGAKVAVFTWHGCSVQLSGRTEVAYVSKDTPMLLYLNTHTALEQMRRQAEKEEERGPRVMVVGPTDVGKSTVCRLLLNYAVRLGRRPTYVELDVGQGSVSIPGTMGALYIERPADVEEGFSIQAPLVYHFGSTTPGTNIKLYNKITSRLADVFNQRCEVNRRASVSGCVINTCGWVKGSGYQALVHAASAFEVDVVVVLDQERLYNELKRDLPHFVRTVLLPKSGGVVERSKDFRRECRDERIREYFYGFRGCFYPHAFNVKFSDVKIYKVGAPTIPDSCLPLGMSQEDNQLKLVPVTPGRDMVHHLLSVSTAEGTEENLSETSVAGFIVVTSVDLEHQVFTVLSPAPRPLPKNFLLIMDIRFMDLK [CLP1] | -0.181 | 46.9 °C | 48.8 °C | -0.0019
4 | MGEIEGTYRVLQTAGMRLGAQTPVGVSTLEPGQTLLPRMQEKHLHLRVKLLDNTMEIFDIEPKCDGQVLLTQVWKRLNLVECDYFGMEFQNTQSYWIWLEPMKPIIRQIRRPKNVVLRLAVKFFPPDPGQLQEEYTRYLFALQLKRDLLEERLTCADTTAALLTSHLLQSEIGDYDETLDREHLKVNEYLPGQQHCLEKILEFHQKHVGQTPAESDFQVLEIARKLEMYGIRFHMASDREGTKIQLAVSHMGVLVFQGTTKINTFNWSKVRKLSFKRKRFLIKLHPEVHGPYQDTLEFLLGSRDECKNFWKICVEYHTFFRLLDQPKPKAKAVFFSRGSSFRYSGRTQKQLVDYFKDSGMKRIPYERRHSKTHTSVRALTADLPKQSISFPEGLRTPASPSSANAFYSLSPSTLVPSGLPEFKDSSSSLTDPQVSYVKSPAAERRSGAVAGGPDTPSAQPLGPPALQPGPGLSTKSPQPSPSSRKSPLSLSPAFQVPLGPAEQGSSPLLSPVLSDAGGAGMDCEEPRHKRVPADEAYFIVKEILATERTYLKDLEVITVWFRSAVVKEDAMPATLMTLLFSNIDPIYEFHRGFLREVEQRLALWEGPSKAHTKGSHQRIGDILLRNMRQLKEFTSYFQRHDEVLTELEKATKRCKKLEAVYKEFELQKVCYLPLNTFLLKPIQRLLHYRLLLRRLCGHYSPGHHDYADCHDALKAITEVTTTLQHILIRLENLQKLTELQRDLVGIENLIAPGREFIREGCLHKLTKKGLQQRMFFLFSDMLLYTSKGVAGTSHFRIRGLLPLQGMLVEESDNEWSVPHCFTIYAAQKTIVVAASTRLEKEKWMLDLNSAIQAAKSGGDTAPALPGRTVCTRPPRSPNEVSLEQESEDDARGVRSSLEGHGQHRANTTMHVCWYRNTSVSRADHSAAVENQLSGYLLRKFKNSHGWQKLWVVFTNFCLFFYKTHQDDYPLASLPLLGYSVSIPREADGIHKDYVFKLQFKSHVYFFRAESKYTFERWMEVIQGASSSAGRAPSIVQDGPQPSSGLEGMVRGKEE [FARP2] | -0.166 | – | 50 °C | -0.0474
5 | MGGLFWRSALRGLRCGPRAPGPSLLVRHGSGGPSWTRERTLVAVKPDGVQRRLVGDVIQRFERRGFTLVGMKMLQAPESVLAEHYQDLRRKPFYPALIRYMSSGPVVAMVWEGYNVVRASRAMIGHTDSAEAAPGTIRGDFSVHISRNVIHASDSVEGAQREIQLWFQSSELVSWADGGQHSSIHPA [NME4] | 0.0944 | 54.9 °C | 54.5 °C | -0.189
